Data on one molecule can be found in patent US20220332804A1 (CSL INNOVATION, published 2022).

Positions count from the first letter of the chain named.

Assay in all cases: SPR, KD relative to WT C2;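 also: biacore SPR at 37 °C, anti-C2 mAbs captured via immobilised goat anti-human IgG, C2 alanine or serine surface mutants as analytes, 1:1 model fitted, double-referenced sensograms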
One test deals with T1, human C2 A717S (human, UniProt P06681 21-752).
T1 sequence: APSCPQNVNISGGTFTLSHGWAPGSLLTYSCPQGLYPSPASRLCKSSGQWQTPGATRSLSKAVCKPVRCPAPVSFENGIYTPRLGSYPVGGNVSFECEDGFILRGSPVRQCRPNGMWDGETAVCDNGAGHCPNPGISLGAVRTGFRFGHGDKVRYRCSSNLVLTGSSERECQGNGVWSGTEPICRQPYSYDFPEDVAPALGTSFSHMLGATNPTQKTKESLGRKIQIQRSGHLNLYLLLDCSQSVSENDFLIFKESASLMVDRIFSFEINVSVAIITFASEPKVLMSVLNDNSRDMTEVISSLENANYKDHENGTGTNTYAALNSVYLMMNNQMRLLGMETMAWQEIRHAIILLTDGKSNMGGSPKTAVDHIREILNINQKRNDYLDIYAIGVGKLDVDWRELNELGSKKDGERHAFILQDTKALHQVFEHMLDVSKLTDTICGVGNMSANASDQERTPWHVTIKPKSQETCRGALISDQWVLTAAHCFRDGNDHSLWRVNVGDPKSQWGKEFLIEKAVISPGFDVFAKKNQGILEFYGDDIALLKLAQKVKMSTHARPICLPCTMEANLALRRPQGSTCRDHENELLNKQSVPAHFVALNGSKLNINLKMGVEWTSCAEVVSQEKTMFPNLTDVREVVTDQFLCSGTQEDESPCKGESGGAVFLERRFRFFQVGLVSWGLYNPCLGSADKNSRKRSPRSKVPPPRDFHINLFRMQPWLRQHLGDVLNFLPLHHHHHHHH

The target of the next test is T2, human C2 N403A (human, UniProt P06681 21-752).
T2 sequence: T1 sequence with N383A, S697A

A further test addresses T3, human C2 D710A (human, UniProt P06681 21-752).
T3 sequence: T1 sequence with D690A, S697A

The target of the next test is T4, human C2 P718A (human, UniProt P06681 21-752).
T4 sequence: T1 sequence with S697A, P698A

B1: RF16-226 (antibody, human IgG4 S228P, lambda)
heavy: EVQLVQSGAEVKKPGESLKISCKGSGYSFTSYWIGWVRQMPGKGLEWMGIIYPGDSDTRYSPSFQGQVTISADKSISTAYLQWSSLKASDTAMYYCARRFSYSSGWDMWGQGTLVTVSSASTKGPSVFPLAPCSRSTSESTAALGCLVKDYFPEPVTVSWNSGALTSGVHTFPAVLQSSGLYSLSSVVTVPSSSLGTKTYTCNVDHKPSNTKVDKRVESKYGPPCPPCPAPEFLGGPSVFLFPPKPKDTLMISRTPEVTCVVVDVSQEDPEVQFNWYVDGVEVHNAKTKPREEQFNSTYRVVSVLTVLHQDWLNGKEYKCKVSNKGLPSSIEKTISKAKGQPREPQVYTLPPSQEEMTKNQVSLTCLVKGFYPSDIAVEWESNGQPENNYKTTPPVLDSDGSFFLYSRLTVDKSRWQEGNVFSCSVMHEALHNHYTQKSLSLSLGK
light: SYELTQPPSVSVSPGQTARITCSGDALTSKYVAWYQQKSGLAPLLVIYEDTRRPSGIPAKFSGSSSGSVATLTISGAHGDDEADYYCYSTDASGHQRVFGGGTKLTVLSQPKAAPSVTLFPPSSEELQANKATLVCLISDFYPGAVTVAWKADGSPVKAGVETTKPSKQSNNKYAASSYLSLTPEQWKSHRSYSCQVTHEGSTVEKTVAPTECS
notes: pH-dependent anti-C2 antibody from a phage display library; also called WT
Take B1: the Fold diff turned out to be 41 fold with human C2 A717S, 1 fold with human C2 N403A, 10 fold in the test with human C2 D710A and 2 fold with human C2 P718A.
